Data as given in PMC7596504, “Molecular mechanism of the MORC4 ATPase activation” (Nature Communications, 2020).

Legend:
NCP147 = test: FRET, LexA titration into Cy3-Cy5 labeled NCP147; assay type: binding; details: addition of MORC4 ATPaseCW
Procedure: (§1) Histone octamers unlabeled or labeled with Cy5 at H2AK119 were prepared as previously described. NCPs were reconstituted by combining octamer with 1.25× excess DNA and performing slow salt dialysis. Free DNA was then separated from fully reconstituted NCPs by sucrose gradient purification. NCPs for fluorescence polarization assays were reconstituted from unlabeled octamer and 207 bp DNA containing the 601 Widom sequence flanked with a 30 bp linker on either side and internally labeled with Fluorescein 27 bp in from the 5′ end. Cy3-Cy5 labeled NCPs for FRET assays were reconstituted with Cy5 labeled octamer plus either 147 bp 601 Widom DNA containing a LexA transcription factor binding site at bases 8–27[34], or 252 bp DNA containing the 601 Widom sequence with a 75 bp linker at the 3′ end, a 30 bp linker at the 5’ end, and a Gal4 transcription factor binding site at bases 8–26 in the 601 Widom sequence. The 147 bp LexA-binding DNA was labeled with Cy3 on the 5′ end, and the 252 bp Gal4-binding DNA was internally labeled with Cy3 34 bp in from the 5′ end.
LexA was expressed in E. coli, separated from genomic DNA and the proteome by polyethyleneimine precipitation, and salted out with ammonium sulfate. LexA was resuspended in buffer A (20 mM potassium phosphate pH 7, 0.1 mM EDTA, 10% glycerol, 1 mM DTT) + 200 mM NaCl and purified by a linear gradient to A + 800 mM NaCl over either a cellulose phosphate or HiTrap Heparin HP column. […]
(§2) Cy3-Cy5 NCP FRET efficiency measurements were carried out on a Horiba Scientific Fluoromax 4. […] LexA titrations were carried out in 20 mM Tris pH 7.5, 75 mM NaCl, 10% glycerol, 0.00625% Tween 20 buffer with 5 nM 147 bp Cy3-Cy5 NCPs mixed in 20 µL reaction volumes and allowed to incubate for 5 mins at 4 °C before FRET of the sample was measured. […] Gal4 (1–147) titrations were carried out in 10 mM Tris pH 8, 130 mM NaCl, 10% glycerol, 0.0075% Tween 20 buffer with 1 nM 252 bp Cy3-Cy5 nucleosomes mixed in 60 µL reaction volumes and allowed to incubate for 10 mins at room temperature before FRET of the sample was measured. […]

NCP252 = test: FRET, Gal4 titration into Cy3-Cy5 labeled NCP252; assay type: binding
Procedure: Histone octamers unlabeled or labeled with Cy5 at H2AK119 were prepared as previously described. NCPs were reconstituted by combining octamer with 1.25× excess DNA and performing slow salt dialysis. Free DNA was then separated from fully reconstituted NCPs by sucrose gradient purification. NCPs for fluorescence polarization assays were reconstituted from unlabeled octamer and 207 bp DNA containing the 601 Widom sequence flanked with a 30 bp linker on either side and internally labeled with Fluorescein 27 bp in from the 5′ end. […]
as §2

O’RangeRuler 5 bp ladder = test: EMSA with DNA ladder (minimum DNA length); assay type: binding; details: 5 bp ladder 50 ng, pH 7.5, 150 mM NaCl
Procedure: EMSA experiments were performed essentially as described. In brief, increasing amounts of WT or mutant CW or ATPaseCW cassette of MORC4 were incubated with 147 bp 601 DNA (5 pmol) or 50 ng of O’RangeRuler 5 bp ladder (Thermo Scientific) in a DNA-binding buffer containing 20 mM Tris-HCl (pH 7.5), 150 mM NaCl, 2.5 mM MgCl2, and 2 mM DTT for 0.5 h on ice. The reaction mixtures were loaded on 5% native polyacrylamide gels, and electrophoresis was performed in 0.2× Tris-borate-EDTA (TBE) buffer at 100 V for 1.2 h on ice. Gels were stained with SYBR Gold (Invitrogen).

NCP207 = test: Fluorescence polarization binding to NCP207
Procedure: Fluorescence polarization measurements were acquired with a Tecan infinite M1000Pro plate reader by exciting at 470 nm and measuring polarized emission at 519 nm with 5 nm excitation and emission bandwidths. The fluorescence polarization was calculated from the emission polarized parallel and perpendicular to the polarized excitation light. Fluorescence polarization measurements were carried out using increasing concentrations of MORC4 ATPaseCW, ATPase alone, or CW alone with 5 nM 207 bp Fluorescein-labeled NCPs in 15 mM Tris pH 7.5, 75 mM NaCl, 0.00625% Tween 20, and 5 mM dithiothreitol buffer in 30 µL reaction volumes. The samples were loaded into a Corning round bottom black polystyrene plate and incubated at room temperature for 10 min before fluorescence polarization measurements of the samples were taken. The data were then fit to a non-cooperative binding isotherm to determine S1/2 values. Errors represent a S.D. between the S1/2 values based on three runs.
as §1

B1: ATPaseCW: ATPaseCW cassette (aa 29–486) of human MORC4 (Q8TE76) (protein)
chain: GIRLSTMSPRYLQSNSSSHTRPFSAIAELLDNAVDPDVSARTVFIDVEEVKNKSCLTFTDDGCGMTPHKLHRMLSFGFTDKVIKKSQCPIGVFGNGFKSGSMRLGKDALVFTKNGGTLTVGLLSQTYLECVQAQAVIVPIVPFNQQNKKMIITEDSLPSLEAILNYSIFNRENDLLAQFDAIPGKKGTRVLIWNIRRNKNGKSELDFDTDQYDILVSDFDTEEKMTGGVTSELPETEYSLRAFCGILYMKPRMKIFLRQKKVTTQMIAKSLANVEYDTYKPTFTNKQVRITFGFSCKNSNQFGIMMYHNNRLIKSFEKVGCQVKPTRGEGVGVIGVIECNFLKPAYNKQDFEYTKEYRLTINALAQKLNAYWKEKTSQDNFETSTVARPIPKVPDQTWVQCDECLKWRKLPGKIDPSMLPARWFCYYNSHPKYRRCSVPEEQELTDEDLCLSKAKKQE
modifications: left off: GST, end not stated, cleaved
NCP147
  effect on binding of LexA to NCP147: decrease in binding of LexA to NCP147
NCP252
  effect on nucleosome unwrapping-wrapping equilibrium: shifts the unwrapping-wrapping equilibrium toward the wrapped state
O’RangeRuler 5 bp ladder
  minimum DNA length for appreciable interaction: ≥ 30 bp
NCP207; ATPaseCW vs ATPase domain, either NCP147 or NCP207
  tighter binding to NCP147 or NCP207 than the ATPase domain only: 2.5–6 fold
NCP207; NCP207 vs NCP147
  increase in interaction with NCP207 relative to NCP147: ~ 2 fold
NCP207; fluorescence polarization, 5 nM NCP207, pH 7.5, 75 mM NaCl, room temperature, 10 min, mean ± S.D. of n = 3
  S1/2: 0.20 ± 0.07 µM
